Molecular target: the molecule itself
Assay: crystal structure; H101N crystals by vapour diffusion (7-8% PEG 20,000, 50 mM MES pH 6.3), 1 mM MnCl2 added, quick soak in 33% (w/v) L-rhamnose or D-allose; data at 100 K; four molecules (Mol-A to Mol-D) forming the tetramer

B1: mutant P. stutzeri L-RhI with a substitution of His101 with Asn (H101N) (enzyme, Pseudomonas stutzeri)
chain: MAEFRIAQDVVARENDRRASALKEDYEALGANLARRGVDIEAVTAKVEKFFVAVPSWGVGTGGTRFARFPGTGEPRGIFDKLDDCAVIQQLTRATPNVSLNIPWDKADPKELKARGDALGLGFDAMNSNTFSDAPGQAHSYKYGSLSHTDAATRAQAVEHNLECIEIGKAIGSKALTVWIGDGSNFPGQSNFTRAFERYLSAMAEIYKGLPDDWKLFSEHKMYEPAFYSTVVQDWGTNYLIAQTLGPKAQCLVDLGHHAPNTNIEMIVARLIQFGKLGGFHFNDSKYGDDDLDAGAIEPYRLFLVFNELVDAEARGVKGFHPAHMIDQSHNVTDPIESLINSANEIRRAYAQALLVDRAALSGYQEDNDALMATETLKRAYRTDVEPILAEARRRTGGAVDPVATYRASGYRARVAAERPASVAGGGGII
  stoichiometry N: 4
